According to patent US20230028110A1 (ADAPTATE BIOTHERAPEUTICS, published 2023):
Positions count from the first letter of the chain named.

B1: 1138_P01_B09 (antibody, IgG1, V domains shown)
VH: EVQLLESGGGLVKPGGSLRLSCAASGFTFSDYYMSWIRQAPGKGLEWVSYISSSGSTIYYADSVKGRFTISRDNAKNSLYLQMNSLRAEDTAVYYCARHSWSDAFDIWGQGTLVTVSS
VL: DIQMTQSPSSLSASVGDRVTITCQASQDISNYLNWYQQKPGKAPKLLIYDASNLETGVPSRFSGSGSGTDFTLTISSLQPEDFATYYCQQSYSTPLTFGGGTKVEIK
notes: IgG1
B2: 1251_P02_C05 (antibody, IgG1, V domains shown)
VH: EVQLLESGGGLVQPGGSLRLSCAASGFTFSSYAMSWVRQAPGKGLEWVSAISGGGGTTYSSDSVKGRFTISRDNSKNTLYLQMNSLRAEDTAVYYCARDSGVAFDIWGQGTLVTVSS
VL: DIQMTQSPSFLSASVGDRVTITCRASQNIRTWLAWYQQKPGRAPKLLIYDASSLESGVPSRFSGSGSGTDFTLTISSLQPEDFATYYCQQFKRYPPTFGLGTKVEIK
notes: IgG1
B3: 1252_P01_C08 (antibody, IgG1, V domains shown)
VH: EVQLLESGGGLVQPGRSLRLSCAASGFTVSSNYMSWVRQAPGKGLEWVSVIYSGGSTYYADSVKGRFTISRDNSKNTLYLQMNSLRAEDTAVYYCASPIELGAFDIWGQGTLVTVSS
VL: SSYELTQPPSVSVAPGKTARITCGGNNIGSQSVHWYQQKPGQAPMLVIYYDSDRPSGIPERFSGSNSGNTATLTISRVEAGDEADYYCQVWDSSSDHVVFGGGTKLTVL
notes: IgG1, lambda light chain
B4: 1141_P01_E01 (antibody, IgG1, V domains shown)
VH: QVQLVQSGAEVKKPGESLKISCKGSGYSFTSYWIGWVRQMPGKGLEWMGIIYPGDSDTRYSPSFQGQVTISADKSISTAYLQWSSLKASDTAMYYCARHQVDTRTADYWGQGTLVTVSS
VL: SQSALTQPASVSGSPGQSVTISCTGTRSDVGGYNYVSWYQHHPGKAPKLMIYEVSNRPSGVSNRFSGSKSGNTASLTISGLQAEDEADYYCSSYTSTSTLVFGGGTKLTVL
notes: IgG1, lambda light chain
B5: ADT1-7-22 (antibody, IgG1, V domains shown)
VH: B1 VH with L5V, H99D, S100D, W101Y, S102N
VL: DIQMTQSPSSLSASVGDRVTIACRAGQSIGTYLNWYQQKPGKAPKLLIYVASSLQSGVPSRFSGSGSGTEFTLTISSLQPEDFATYYCQQSASELLTFGRGTKVEIK
notes: IgG1
B6: ADT1-7-23 (antibody, IgG1, V domains shown)
VH: B1 VH with L5V, H99V, S100D, W101Y, S102N, D103E
VL: B5 VL with A92Y, E94G, L96D
notes: IgG1
B7: ADT1-7-10 (antibody, IgG1, V domains shown)
VH: B1 VH with L5V, H99D, S100D, W101Y, S102N
VL: B5 VL with S91T, E94T
notes: IgG1
B8: ADT1-7-15 (antibody, IgG1, V domains shown)
VH: B1 VH with L5V, H99D, S100D, W101Y, S102N
VL: B5 VL with S93D, E94T
notes: IgG1
B9: ADT1-7-42 (antibody, IgG1, V domains shown)
VH: B1 VH with L5V, H99D, S100D, W101Y, S102E
VL: B5 VL with A92S
notes: IgG1
B10: ADT1-7-17 (antibody, IgG1, V domains shown)
VH: B1 VH with L5V, H99I, S100D, W101Y, S102E
VL: B5 VL with A92G
notes: IgG1
B11: ADT1-7-19 (antibody, IgG1, V domains shown)
VH: B1 VH with L5V, H99I, S100D, W101Y, S102E
VL: B5 VL
notes: IgG1
B12: ADT1-7-18 (antibody, IgG1, V domains shown)
VH: B1 VH with L5V, H99V, W101Y, S102D
VL: B5 VL with A25V
notes: IgG1

These binders were tested against T1, L1 (DV1-GV4), soluble human Vδ1/Vγ4 γδ TCR heterodimer in leucine zipper format (human) (assay: DELFIA, 100 nM biotinylated L1).
T1 construct: Biotinylated in the DELFIA ranking; also called Antigen L1 (TRDV1/TRGV4); human DV1-GV4; not shown: gamma chain: Vγ4 (TRGV4) domain on a TCR constant region, leucine zipper, histidine tag
T1 sequence (main, as listed by the source): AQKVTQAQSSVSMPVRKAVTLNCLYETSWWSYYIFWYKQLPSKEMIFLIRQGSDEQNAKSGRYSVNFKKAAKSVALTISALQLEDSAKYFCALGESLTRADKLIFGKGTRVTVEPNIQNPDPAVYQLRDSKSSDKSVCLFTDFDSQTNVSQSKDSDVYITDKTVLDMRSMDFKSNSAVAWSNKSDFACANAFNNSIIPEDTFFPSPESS

Compared with B1, B2 is higher in “DELFIA signal at 100 nM L1” value: 29200 fluorescence units for the first, 65300 fluorescence units for the second.

First: B3
Second: B4
The “DELFIA signal at 100 nM L1” value of the first is lower: 1980 fluorescence units for the first, 137000 fluorescence units for the second.

Each binder was assayed against T1, L1 (DV1-GV4), soluble human Vδ1/Vγ4 γδ … (assay: DELFIA ELISA, human antigen; heat map cell of the clone).

Going from B5 to B6, the “ELISA signal (heat map)” value rises from 27800 to 34400.

Compared with B7, B8 is lower in “ELISA signal (heat map)” value: 30900 for the first, 30400 for the second.

Compared with B9, B10 is lower in “ELISA signal (heat map)” value: 37600 for the first, 30200 for the second.

Compared with B11, B12 is higher in “ELISA signal (heat map)” value: 34700 for the first, 34800 for the second.
